In experiment [1] the target is human NRP2 endogenously expressed on cell lines (human) (UniProt O60462). Briefly: flow cytometry on A549 WT cells.
For experiment [2], the target named is T1, human NRP2 variant 2 (NM_003872) over-expressed on Expi293-hNRP2 clonal cells (human, UniProt O60462 23-931).
T1 sequence: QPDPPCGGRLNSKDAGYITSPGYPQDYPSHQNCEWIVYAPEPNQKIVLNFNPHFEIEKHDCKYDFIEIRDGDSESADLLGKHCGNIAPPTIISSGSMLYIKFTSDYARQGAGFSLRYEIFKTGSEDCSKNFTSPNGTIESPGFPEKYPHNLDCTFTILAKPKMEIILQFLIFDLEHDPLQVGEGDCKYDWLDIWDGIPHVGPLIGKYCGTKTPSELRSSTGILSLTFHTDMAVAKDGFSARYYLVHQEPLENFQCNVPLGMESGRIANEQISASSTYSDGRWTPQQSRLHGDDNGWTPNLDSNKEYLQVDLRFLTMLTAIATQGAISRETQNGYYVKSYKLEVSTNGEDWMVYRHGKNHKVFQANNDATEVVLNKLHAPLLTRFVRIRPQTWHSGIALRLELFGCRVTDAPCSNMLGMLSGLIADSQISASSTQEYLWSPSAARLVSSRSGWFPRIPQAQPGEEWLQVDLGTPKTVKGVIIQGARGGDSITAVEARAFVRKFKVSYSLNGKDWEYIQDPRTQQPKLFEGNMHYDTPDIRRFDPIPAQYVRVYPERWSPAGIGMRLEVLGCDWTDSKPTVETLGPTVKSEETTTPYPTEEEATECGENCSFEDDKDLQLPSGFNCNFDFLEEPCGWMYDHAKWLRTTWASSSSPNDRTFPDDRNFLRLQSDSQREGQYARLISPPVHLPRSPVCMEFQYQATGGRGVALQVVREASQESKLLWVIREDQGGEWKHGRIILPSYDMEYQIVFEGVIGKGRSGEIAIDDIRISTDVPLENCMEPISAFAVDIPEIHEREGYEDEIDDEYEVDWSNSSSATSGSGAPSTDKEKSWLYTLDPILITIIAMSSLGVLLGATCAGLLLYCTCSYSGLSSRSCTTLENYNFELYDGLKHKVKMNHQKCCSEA
Put plainly: flow cytometry on Expi293-hNRP2 cells, 0.05-100 nM, anti-human Fc detection. Here is the method:
(§1) To assess the ability of the anti-NRP2 antibodies to displace the binding of VEGF-C, Semaphorin 3F and HRS polypeptides, flow cytometry was used. Binding of recombinant human VEGF-C (R&D Cat#9199-VC-025, untagged), Sema3F-Fc (R&D Cat#9878-S3-025, Fc chimera protein) or Sema3F-p95m (prepared In-house), Myc-tagged Sema3F-p95 R583A R586A-1359) to Expi293-hNRP2 cells over expressing human NRP2 were determined by immunostaining assay as described in Example 4. Studies were conducted with cells incubated with each of these proteins at 0.05 - 100 nM at 3-fold dilutions on ice for 1 hour. Cells were then washed and stained with secondary and/or detection antibodies as described previously. […] Sema3F-Fc was detected by a Cy3-conjugated goat anti-human Fc IgG (Jackson ImmunoResearch Cat#109165098). Sema3F-p95m was detected by an AF555-conjugated anti-Myc antibody (ThermoFisher Cat#MA1980A555).
(§2) Binding curves were fit and EC₅₀ values determined as described above. VEGF-C was determined to bind to Expi293-hNRP2 cells with an EC₅₀ of 0.6 nM. Sema3F-Fc was determined to bind to Expi293-hNRP2 cells with an EC₅₀ of ^{~}8.2 nM, and Sema3F-p95m bound to Expi293-hNRP2 cells with an with EC₅₀ of 5.7 nM.

For experiment [3], the target named is T1, human NRP2 variant 2 (NM_003872) …. Put plainly: flow cytometry on Expi293-hNRP2 cells, 0.05-100 nM, anti-Myc detection. Here is the method:
as §1, §2

Experiment [4] shares this target. Put plainly: flow cytometry on Expi293-hNRP2 cells, 0.05-100 nM, rabbit anti-VEGF-C detection. Here is the method:
as §1, §2

The text below walks through data of patent publication US20230312730A1 (ATYR PHARMA, published 2023).

Several values for one entry are separate records, joined by “and”; a condition that tells them apart may be missing. Identical values can stand only once.

Turning to “C9-AF647 Santa Cruz Biotech anti-NRP2 antibody”, the Fold change of a-NRP2 to Ctl (FC) in experiment [1] is 2.6 fold and 1.8 fold. The same measure, in the same setting: then “C9-PE Santa Cruz Biotech anti-NRP2 antibody”, with 6 fold.

B1: Human SEMA3F-Fc (R&D Systems #9878-S3) (Fc fusion, UniProt Q13275 19-779, looked up)
chain: SFPTQDHLPATPRVRLSFKELKATGTAHFFNFLLNTTDYRILLKDEDHDRMYVGSKDYVLSLDLHDINREPLIIHWAASPQRIEECVLSGKDVNGECGNFVRLIQPWNRTHLYVCGTGAYNPMCTYVNRGRRAQATPWTQTQAVRGRGSRATDGALRPMPTAPRQDYIFYLEPERLESGKGKCPYDPKLDTASALINEELYAGVYIDFMGTDAAIFRTLGKQTAMRTDQYNSRWLNDPSFIHAELIPDSAERNDDKLYFFFRERSAEAPQSPAVYARIGRICLNDDGGHCCLVNKWSTFLKARLVCSVPGEDGIETHFDELQDVFVQQTQDVRNPVIYAVFTSSGSVFRGSAVCVYSMADIRMVFNGPFAHKEGPNYQWMPFSGKMPYPRPGTCPGGTFTPSMKSTKDYPDEVINFMRSHPLMYQAVYPLQRRPLVVRTGAPYRLTTIAVDQVDAADGRYEVLFLGTDRGTVQKVIVLPKDDQELEELMLEEVEVFKDPAPVKTMTISSKRQQLYVASAVGVTHLSLHRCQAYGAACADCCLARDPYCAWDGQACSRYTASSKRRSRRQDVRHGNPIRQCRGFNSNANKNAVESVQYGVAGSAAFLECQPRSPQATVKWLFQRDPGDRRREIRAEDRFLRTEQGLLLRALQLSDRGLYSCTATENNFKHVVTRVQLHVLGRDAVHAALFPPLSMSAPPPPGAGPPTPPYQELAQLLAQPEVGLIHQYCQGYWRHVPPSPREAPGAPRSPEPQDQKKPRNRR
notes: Bought reagent; not shown: Fc of the bought chimera (detected with anti-human Fc)
As to B1, the EC50 in experiment [2] was around 8.2 nM.

B2: Sema3F-p95m (Myc-tagged Sema3F-p95 R583A R586A-1359) (ligand, UniProt Q13275 19-779, looked up)
chain: SFPTQDHLPATPRVRLSFKELKATGTAHFFNFLLNTTDYRILLKDEDHDRMYVGSKDYVLSLDLHDINREPLIIHWAASPQRIEECVLSGKDVNGECGNFVRLIQPWNRTHLYVCGTGAYNPMCTYVNRGRRAQATPWTQTQAVRGRGSRATDGALRPMPTAPRQDYIFYLEPERLESGKGKCPYDPKLDTASALINEELYAGVYIDFMGTDAAIFRTLGKQTAMRTDQYNSRWLNDPSFIHAELIPDSAERNDDKLYFFFRERSAEAPQSPAVYARIGRICLNDDGGHCCLVNKWSTFLKARLVCSVPGEDGIETHFDELQDVFVQQTQDVRNPVIYAVFTSSGSVFRGSAVCVYSMADIRMVFNGPFAHKEGPNYQWMPFSGKMPYPRPGTCPGGTFTPSMKSTKDYPDEVINFMRSHPLMYQAVYPLQRRPLVVRTGAPYRLTTIAVDQVDAADGRYEVLFLGTDRGTVQKVIVLPKDDQELEELMLEEVEVFKDPAPVKTMTISSKRQQLYVASAVGVTHLSLHRCQAYGAACADCCLARDPYCAWDGQACSRYTASSKRASRAQDVRHGNPIRQCRGFNSNANKNAVESVQYGVAGSAAFLECQPRSPQATVKWLFQRDPGDRRREIRAEDRFLRTEQGLLLRALQLSDRGLYSCTATENNFKHVVTRVQLHVLGRDAVHAALFPPLSMSAPPPPGAGPPTPPYQELAQLLAQPEVGLIHQYCQGYWRHVPPSPREAPGAPRSPEPQDQKKPRNRR
notes: not shown: Myc tag
The molecule B2 showed an EC50 in experiment [3] of 5.7 nM.

B3: recombinant human VEGF-C (R&D Systems #9199-VC) (ligand, UniProt P49767 103-227, looked up)
chain: TEETIKFAAAHYNTEILKSIDNEWRKTQCMPREVCIDVGKEFGVATNTFFKPPCVSVYRCGGCCNSEGLQCMNTSTSYLSKTLFEITVPLSQGPKPVTISFANHTSCRCMSKLDVYRQVHSIIRR
notes: Bought reagent
B3 yielded an EC50 in experiment [4] of 0.6 nM.
